Data taken from patent publication US20150344580A1 (MSM PROTEIN TECHNOLOGIES, published 2015).

Legend:
cyno CXCR3 = biological target: T1, cyno CXCR3 (cynomolgus monkey, UniProt A0A2K5UV19 1-368); experiment: FACS, CHO-cyno CXCR3 cells
T1 construct: whole, on cells; CHO cells
T1 sequence: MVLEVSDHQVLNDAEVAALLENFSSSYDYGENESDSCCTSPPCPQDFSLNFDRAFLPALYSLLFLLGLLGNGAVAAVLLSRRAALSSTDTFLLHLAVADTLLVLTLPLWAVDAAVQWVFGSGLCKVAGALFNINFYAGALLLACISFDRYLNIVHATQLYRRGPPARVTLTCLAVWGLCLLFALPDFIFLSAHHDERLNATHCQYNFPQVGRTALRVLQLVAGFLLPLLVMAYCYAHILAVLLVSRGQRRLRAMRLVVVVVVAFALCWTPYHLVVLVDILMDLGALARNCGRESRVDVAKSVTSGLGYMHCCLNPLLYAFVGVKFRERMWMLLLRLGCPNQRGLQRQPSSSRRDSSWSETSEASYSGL
Method: (§1) In more details, the cell staining procedure was: 5000-1000 cell suspension in 10 μl FACS buffer (1×PBS, 2.0% FBS, 0.2% sodium azide) was mixed with 10 μl of 200 nM the corresponding anti-CCR7 MAB and incubated on ice for 30 min. Washing step—after the incubation 150 μl of FACS buffer was added to the cell sample, the samples were mixed gently by up-down pipetting the cell suspension. Then the samples were centrifuged at 1100 rpm for 5 minutes, and supernatants were removed. Washing step was repeated ones. Then 10 μl of anti-human PE-(Fab)2 form Jackson Immuno Research Lab. #709-116-098 diluted 40 times in FACS buffer were added to the cells and the cells were re-suspended by up-down pipetting. After 20 min. incubation on ice in dark the washing step was repeated twice. The washed cells were mixed with 100 μl of FIX buffer (0.5% Paraformaldehyde solution in PBS). Fixed samples were stored in dark on ice and analyzed by FACS on Guava PCA-96 flow cytometer. The fluorescent signals collected from individual cells were obtained using fluorescence Activated Cell Sorter (FACS).

human CCR4 = biological target: T2, human CCR4 (human, UniProt P51679 1-360); experiment: FACS, CHO-human CCR4 cells
T2 construct: whole, on cells; CHO cells
T2 sequence (looked up): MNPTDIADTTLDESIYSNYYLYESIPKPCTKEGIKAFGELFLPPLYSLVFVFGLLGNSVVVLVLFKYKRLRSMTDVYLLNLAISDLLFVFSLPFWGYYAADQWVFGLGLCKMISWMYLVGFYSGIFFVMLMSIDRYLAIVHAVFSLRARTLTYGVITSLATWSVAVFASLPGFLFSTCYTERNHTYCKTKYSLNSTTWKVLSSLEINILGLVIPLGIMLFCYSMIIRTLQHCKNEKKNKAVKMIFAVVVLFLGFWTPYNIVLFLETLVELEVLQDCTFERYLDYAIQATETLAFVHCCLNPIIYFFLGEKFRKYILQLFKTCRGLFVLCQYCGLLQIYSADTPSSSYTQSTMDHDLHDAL
Method: as §1, with “Washing” for “In more details, the cell staining procedure was: 5000-1000 cell suspension in 10 μl FACS buffer (1×PBS, 2.0% FBS, 0.2% sodium azide) was mixed with 10 μl of 200 nM the corresponding anti-CCR7 MAB and incubated on ice for 30 min. Washing”, “cytometer.” for “cytometer. The fluorescent signals collected from individual cells were obtained using fluorescence Activated Cell Sorter (FACS).”
In more details, the cell staining procedure was: […] cell suspension in 10 μl FACS buffer (1×PBS, 2.0% FBS, 0.2% sodium azide) was mixed with 10 μl of 200 nM the corresponding anti-CCR7 MAB and incubated on ice for 30 min. Washing step—after the incubation 150 μl of FACS buffer was added to the cell sample, the samples were mixed gently by up-down pipetting the cell suspension. […] Fixed samples were stored in dark on ice and analyzed by FACS on Guava PCA-96 flow cytometer. The fluorescent signals collected from individual cells were obtained using fluorescence Activated Cell Sorter (FACS).

human CCR10 = biological target: T3, human CCR10 (human, UniProt P46092 1-362); experiment: FACS, CHO-human CCR10 cells
T3 construct: whole, on cells; CHO cells
T3 sequence (looked up): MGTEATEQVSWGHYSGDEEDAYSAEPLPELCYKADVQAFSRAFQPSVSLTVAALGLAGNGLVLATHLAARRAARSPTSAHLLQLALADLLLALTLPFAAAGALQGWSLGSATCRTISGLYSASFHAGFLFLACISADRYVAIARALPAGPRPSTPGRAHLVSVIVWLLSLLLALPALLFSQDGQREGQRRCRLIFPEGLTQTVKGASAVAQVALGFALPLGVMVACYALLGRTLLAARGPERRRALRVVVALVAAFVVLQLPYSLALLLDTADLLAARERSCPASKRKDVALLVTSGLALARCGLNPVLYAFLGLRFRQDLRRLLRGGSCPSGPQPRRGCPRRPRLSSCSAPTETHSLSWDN

human CXCR6 = biological target: T4, human CXCR6 (human, UniProt O00574 1-342); experiment: FACS, CHO-human CXCR6 cells
T4 construct: whole, on cells; CHO cells

human CCR9 = biological target: T5, human CCR9 (human, UniProt P51686 1-369); experiment: FACS, R1610-human CCR9 cells
T5 construct: whole, on cells; R1610 cells
T5 sequence (looked up): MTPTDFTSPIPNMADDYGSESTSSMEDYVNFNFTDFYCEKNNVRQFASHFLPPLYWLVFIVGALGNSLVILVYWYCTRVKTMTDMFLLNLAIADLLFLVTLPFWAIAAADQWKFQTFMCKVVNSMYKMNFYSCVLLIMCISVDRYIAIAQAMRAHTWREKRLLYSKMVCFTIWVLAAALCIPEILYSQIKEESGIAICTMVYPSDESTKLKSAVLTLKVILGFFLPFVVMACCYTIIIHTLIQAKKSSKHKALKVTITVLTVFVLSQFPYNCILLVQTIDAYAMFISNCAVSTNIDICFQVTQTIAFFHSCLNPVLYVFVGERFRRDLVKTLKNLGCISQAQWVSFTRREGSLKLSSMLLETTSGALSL
Method: as §1

human CXCR2 = biological target: T6, human CXCR2 (human, UniProt P25025 1-360); experiment: FACS, Cf2th-human CXCR2 cells
T6 construct: whole, on cells; Cf2th cells
T6 sequence (looked up): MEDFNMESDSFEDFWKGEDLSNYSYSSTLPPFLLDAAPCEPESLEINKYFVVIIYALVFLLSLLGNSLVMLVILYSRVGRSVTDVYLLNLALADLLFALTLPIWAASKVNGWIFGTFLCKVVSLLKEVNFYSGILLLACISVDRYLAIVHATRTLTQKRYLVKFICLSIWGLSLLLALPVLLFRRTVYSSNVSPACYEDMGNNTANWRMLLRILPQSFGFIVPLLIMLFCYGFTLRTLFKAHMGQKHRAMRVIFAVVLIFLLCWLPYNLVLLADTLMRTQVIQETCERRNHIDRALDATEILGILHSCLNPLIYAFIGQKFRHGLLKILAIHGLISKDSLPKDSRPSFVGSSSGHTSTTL
Method: as §1

T4 sequence (O00574 whole entry): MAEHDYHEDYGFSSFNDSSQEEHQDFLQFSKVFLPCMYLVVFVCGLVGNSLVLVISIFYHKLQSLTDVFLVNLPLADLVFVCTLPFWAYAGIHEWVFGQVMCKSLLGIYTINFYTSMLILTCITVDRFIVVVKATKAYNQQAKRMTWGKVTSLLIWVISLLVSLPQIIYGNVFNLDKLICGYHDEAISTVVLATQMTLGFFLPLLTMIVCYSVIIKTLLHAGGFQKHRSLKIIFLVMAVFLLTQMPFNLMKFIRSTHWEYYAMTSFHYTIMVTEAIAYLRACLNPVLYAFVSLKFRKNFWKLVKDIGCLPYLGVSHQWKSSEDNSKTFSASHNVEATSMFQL

B1: MSM-R735 (fully human anti-human CCR7 antibody, IgG1) (antibody)
heavy: not shown
light: EIVLTQSPGTLSLSPGERATLSCRASQSVSSSYLAWYQQKPGQAPRLLIYGASSRATGIPDRFSGSGSGTDFTLTISRLEPEDFAVYYCQQGSPVTFGQGTKVEIKRTVAAPSVFIFPPSDEQLKSGTASVVCLLNNFYPREAKVQWKVDNALQSGNSQESVTEQDSKDSTYSLSSTLTLSKADYEKHKVYACEVTHQGLSSPVTKSFNRGEC
notes: IgG1 format; also called R735 Human IgG1
binding result (cyno CXCR3): no binding (tested: 200 nM MAB mixed 1:1 with cells)
binding result (human CCR4): no binding (tested: 200 nM MAB mixed 1:1 with cells)
binding result (human CCR10): no binding (tested: 200 nM MAB mixed 1:1 with cells)
binding result (human CXCR6): no binding (tested: 200 nM MAB mixed 1:1 with cells)
binding result (human CCR9): no binding (tested: 200 nM MAB mixed 1:1 with cells)
binding result (human CXCR2): no binding (tested: 200 nM MAB mixed 1:1 with cells)

B2: MSM-R710 (fully human anti-human CCR7 antibody, IgG1) (antibody, V domains shown)
VH: EVQLLESGGGLVQPGGSLRLSCAASGFTFSNYTMHWVRQAPGKGLEWVSGIGPRSGRTYYADSVKGRFTISRDNSKNTLYLQMNSLRAEDTAVYYCARSYAYQYRGFDYWGQGTLVTVSS
VL: EIVLTQSPGTLSLSPGERATLSCRASQSVSSSYLAWYQQKPGQAPRLLIYGASSRATGIPDRFSGSGSGTDFTLTISRLEPEDFAVYYCQSSVTFGQGTKVEIKR
notes: IgG1 format
binding result (cyno CXCR3): no binding (tested: 200 nM MAB mixed 1:1 with cells)
binding result (human CCR4): no binding (tested: 200 nM MAB mixed 1:1 with cells)
binding result (human CCR10): no binding (tested: 200 nM MAB mixed 1:1 with cells)
binding result (human CXCR6): no binding (tested: 200 nM MAB mixed 1:1 with cells)
binding result (human CCR9): no binding (tested: 200 nM MAB mixed 1:1 with cells)
binding result (human CXCR2): no binding (tested: 200 nM MAB mixed 1:1 with cells)
